Test [1] addresses T1, Human complement C4 protein (Millipore Sigma, Cat. 204886) (human, UniProt P0C0L4 20-675; P0C0L4 680-1446; P0C0L4 1454-1744, limits assumed, natural sulfotyrosines).
T1 construct: mature
Kind of test: ELISA, 50 nM mAb on plate-bound protein. On the procedure:
Recombinant PSGL-1-hFc1 chimera protein consisting of PSGL-1's extracellular domain (ECD) served as a positive control. […] Primary antibody was added (25 ul per well) in duplicate at 50 nM in assay buffer (blocking buffer containing 0.05% Tween®20) into test and control (just blocked) wells and the plate incubated for 45 min at 37° C.

In test [2] the target is T2, Biotin PSGL-1(42-62) D52A peptide (C-terminal Lys-biotin).
T2 peptide: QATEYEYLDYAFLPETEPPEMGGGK
Nature of the test: ELISA, streptavidin-bound Ala peptide. Background: An ELISA detects its analyte on a solid surface through an enzyme-linked reagent.

Test [3] concerns the target T2, Biotin PSGL-1(42-62) D52A peptide. Kind of test: ELISA; against wild-type PSGL-1 42-62.
Test [4] concerns the target T3, Biotin sY48 PSGL-1(42-62) peptide (human, sulfotyrosine at Y48; C-terminal Lys-biotin).
T3 construct: also called sY48S
T3 peptide: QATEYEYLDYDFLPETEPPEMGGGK
Kind of test: capture ELISA; against 3 x sY peptide. On the procedure: (§1) Two ELISA methods were performed. One procedure detected mAb binding to its plate-immobilized target and the other measured the immobilized antibody's ability to capture biotinylated PSGL-1₄₂₋₆₂. […] The plate was incubated for 45 min at 37° C. Plates were washed 3 times with wash buffer (PBS containing 0.05% tween 20, pH 7.4) and a single concentration (2 to 500 nM) or serially diluted (0.002-100 nM) anti-PSGL-1 mAb was added (25 ul/well) in assay buffer into appropriate wells. The plate was incubated for 45 min at 37° C., washed 3 times, and an appropriate HRP-conjugated secondary antibody added (25 ul/well) (HRP goat anti-mouse or anti-human IgG). After 45 min incubation at 37° C., the plate was washed, and antibody bound to plate-immobilized target was determined at A450 nm using HRP substrate (3,3′,5,5′-etramethylbenzidine (TMB)). For each antibody, duplicate values were averaged and assay background was subtracted. Except for the following, ELISAs involving plate-immobilized mAb capturing of biotinylated PSGL-1₄₂₋₆₂ peptides was performed in the same manner as described above: 3 ug/mL/25 ul per well of mAb was coated directly onto microtiter plate wells; biotinylated unmodified or sulfotyrosine PSGL-1₄₂₋₆₂ was serially diluted (3 nM-3 uM) into appropriate wells, and antibody-bound peptide was detected using HRP-streptavidin (Jackson Immunoresearch, Cat. #016-030-084).

For test [5], the target named is T4, Biotin sY51 PSGL-1(42-62) peptide (human, sulfotyrosine at Y51; C-terminal Lys-biotin).
T4 construct: also called Y51(SO3) PSGL-1(42-62)
T4 peptide: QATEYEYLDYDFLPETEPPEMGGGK
Nature of the test: ELISA, plate-bound mAb captures biotin peptide. On the procedure: as §1

Test [6] deals with T5, Biotin Y46,48,51(SO3) PSGL-1(42-62) peptide (human, sulfotyrosine at Y46, Y48 and Y51; C-terminal Lys-biotin).
T5 construct: also called fully sulfated N-terminal PSGL-1 peptide
T5 peptide: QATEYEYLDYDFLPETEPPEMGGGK
Kind of test: ELISA, plate-bound mAb captures biotin peptide. The procedure: as §1

Test [7] deals with T6, Biotin sY46 PSGL-1(42-62) peptide (human, sulfotyrosine at Y46; C-terminal Lys-biotin).
T6 peptide: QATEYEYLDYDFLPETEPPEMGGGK
Kind of test: ELISA, plate-bound mAb captures biotin peptide. On the procedure:
as §1

In test [8] the target is T3, Biotin sY48 PSGL-1(42-62) peptide. Nature of the test: ELISA, plate-bound mAb captures biotin peptide. On the procedure:
as §1

Test [9] concerns the target T7, PSGL-1(42-62) N-terminal peptide, sulfation state not told at the place (human, not fully specified; sulfation of Y46, Y48, Y51 not stated for these table columns).
T7 peptide: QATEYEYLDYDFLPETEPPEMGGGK
Kind of test: binding to PSGL-1 42-62.

Test [10] concerns the target T8, Recombinant human PSGL-1(ECD)-hFc1 (R&D Systems, Cat. 3345-PS) (human, UniProt Q14242 42-305).
T8 construct: Bought; Gln42-Val295 counted on AAC50061; also called PSGL-1-Fc; PSGL-1-hFc1 chimera; not shown: human IgG1 Fc, Pro100-Lys330
T8 sequence: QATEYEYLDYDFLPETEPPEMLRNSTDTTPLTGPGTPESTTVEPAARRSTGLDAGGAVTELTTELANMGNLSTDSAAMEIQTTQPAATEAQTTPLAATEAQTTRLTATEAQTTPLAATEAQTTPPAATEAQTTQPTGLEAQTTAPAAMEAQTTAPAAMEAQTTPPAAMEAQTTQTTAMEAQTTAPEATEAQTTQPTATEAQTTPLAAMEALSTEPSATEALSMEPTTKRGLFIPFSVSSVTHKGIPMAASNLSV
Nature of the test: Octet tandem; competitor 16E17. The procedure:
(§2) Antibody binning was performed by ForteBio Octet® using a tandem assay format, with anti-human IgG biosensor-immobilized PSGL-1(ECD)-hFc1 protein, binding of competitor mAb followed by analyte antibody. As competition controls, the same antibody was competed against itself, and mAb competition was performed bidirectionally.
(§3) Antibody binning by tandem octet was performed by immobilizing 10 ug/mL PSGL-1(ECD)-hFc1 (R&D Systems, Cat. #3345-PS) in PBS, pH 7.4, onto anti-human IgG capture biosensors (ForteBio, Cat. #18-5060), binding of 100 nM competitor antibody for 300 sec., followed by binding of 100 nM of analyte mAb for 300 s in kinetic buffer (0.1% BSA in PBS containing 0.02% tween 20 and 0.05% sodium azide, pH 7.4). Synagis (Johnson et al. (1997) J. Infect. Dis. 176:1215-1224) served as a negative control mAb for competition. An Fc quench step (0.25 mg/mL human IgG Fcl; BioXcell, Cat. #BE0096, in kinetic buffer) was included when human mAbs were tested to prevent high background from the antibodies binding to the anti-human IgG biosensor. Biosensor regeneration buffer consisted of 10 mM glycine, pH 2.0.
A general note: BLI is a label-free optical method that tracks binding on a fibre tip over time.

The target in test [11] is T8, Recombinant human PSGL-1(ECD)-hFc1 (R&D …). Kind of test: Octet tandem; competitor 20G13. The procedure: as §2, §3

Substitutions are numbered along the chain they refer to.

T1 sequence (P0C0L4 20-675 limits assumed, form in doubt, chain 1 of 3): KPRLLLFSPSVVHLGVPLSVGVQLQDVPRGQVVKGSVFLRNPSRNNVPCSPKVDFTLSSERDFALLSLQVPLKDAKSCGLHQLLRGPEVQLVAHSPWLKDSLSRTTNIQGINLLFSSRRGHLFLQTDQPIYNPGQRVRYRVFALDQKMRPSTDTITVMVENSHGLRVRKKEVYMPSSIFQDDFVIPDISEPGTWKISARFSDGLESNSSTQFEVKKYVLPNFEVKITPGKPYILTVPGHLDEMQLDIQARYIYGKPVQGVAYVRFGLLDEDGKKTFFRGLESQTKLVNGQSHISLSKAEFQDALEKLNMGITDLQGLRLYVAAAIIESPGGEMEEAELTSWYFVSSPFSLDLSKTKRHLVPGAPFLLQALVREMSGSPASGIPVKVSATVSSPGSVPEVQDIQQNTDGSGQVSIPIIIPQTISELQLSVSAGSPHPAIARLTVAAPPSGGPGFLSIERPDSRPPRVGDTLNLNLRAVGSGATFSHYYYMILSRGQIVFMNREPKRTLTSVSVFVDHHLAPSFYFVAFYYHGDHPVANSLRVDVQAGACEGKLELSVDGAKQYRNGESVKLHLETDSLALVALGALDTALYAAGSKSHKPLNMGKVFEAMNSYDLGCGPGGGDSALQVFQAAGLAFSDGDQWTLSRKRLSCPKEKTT
T1 sequence (P0C0L4 680-1446 limits assumed, form in doubt, chain 2 of 3): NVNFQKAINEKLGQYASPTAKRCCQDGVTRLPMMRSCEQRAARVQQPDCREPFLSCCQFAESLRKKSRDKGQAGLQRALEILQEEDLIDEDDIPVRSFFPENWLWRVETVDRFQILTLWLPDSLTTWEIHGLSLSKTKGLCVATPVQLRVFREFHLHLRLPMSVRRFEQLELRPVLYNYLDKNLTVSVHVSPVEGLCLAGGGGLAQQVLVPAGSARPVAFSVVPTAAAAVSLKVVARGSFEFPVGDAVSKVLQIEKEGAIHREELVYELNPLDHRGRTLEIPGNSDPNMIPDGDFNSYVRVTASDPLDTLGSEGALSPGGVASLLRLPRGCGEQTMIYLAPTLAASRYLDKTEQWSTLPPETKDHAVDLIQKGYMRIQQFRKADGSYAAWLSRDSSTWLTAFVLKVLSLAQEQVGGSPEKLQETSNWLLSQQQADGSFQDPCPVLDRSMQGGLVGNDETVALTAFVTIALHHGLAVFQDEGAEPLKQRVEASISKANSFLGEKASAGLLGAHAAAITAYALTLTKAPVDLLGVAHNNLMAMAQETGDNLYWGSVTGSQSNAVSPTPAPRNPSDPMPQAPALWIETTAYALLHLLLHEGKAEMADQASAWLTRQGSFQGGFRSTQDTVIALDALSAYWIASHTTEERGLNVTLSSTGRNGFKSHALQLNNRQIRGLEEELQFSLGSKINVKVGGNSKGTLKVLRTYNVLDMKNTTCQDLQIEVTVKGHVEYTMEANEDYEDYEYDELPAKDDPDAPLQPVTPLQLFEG
T1 sequence (P0C0L4 1454-1744 limits assumed, form in doubt, chain 3 of 3): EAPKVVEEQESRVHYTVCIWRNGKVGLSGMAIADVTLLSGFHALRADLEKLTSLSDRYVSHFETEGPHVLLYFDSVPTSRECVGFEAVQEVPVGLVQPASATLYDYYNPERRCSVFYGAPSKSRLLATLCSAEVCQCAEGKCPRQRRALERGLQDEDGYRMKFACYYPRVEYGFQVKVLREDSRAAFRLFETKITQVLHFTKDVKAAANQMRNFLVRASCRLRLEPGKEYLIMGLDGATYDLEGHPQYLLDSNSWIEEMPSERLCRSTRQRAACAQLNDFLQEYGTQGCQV

B1: 18F02 (antibody, V domains shown)
VH: QVQLQQPGAELVKPGASVKLSCKASGYTFTSYWMHWVKQRPGQGLEWIGMIHPNSGRTNYNEKFKSKATLTVDKSSSTAYMQLSSLTSEDSAVYYCARSDYWGQGTTLTVSS
VL: DIVMTQAAFSNPVTLGTSASISCRSSKSLLHSDGITYLYWFLQRPGQSPQLLIYRMSNLASGVPDRFSGSGSGTDFTLRISRVEAEDVGVYYCAQMLEFPRTFGGGTKLEIK
notes: From mouse immunisation; only variable domains given
For B1, the “% of binding to PSGL-1(ECD)-hFc1” value in test [1] was no more than 10%. In test [2], this molecule registered a concentration giving a half-maximal response (EC50) greater than 10 nM. The EC50Ala/EC50 wt in test [3] was greater than 100 fold.

B2: 03D07 (antibody, IgG4, V domains shown)
VH: EVKLLESGGGLVQPGGSLRLSCAASGFTFSSYALSWVRQAPGKGLEWVSAISGSGGNTYYADSVKGRFTISRDNSKNTLYLQMNSLRAEDTAVYYCAKVVGATNYWGQGTLVTVSS
VL: DIVMTQTPLSLPVTLGQPASISCRSSQSLVYSDGHTYLSWFHQRPGQSPRRLIYKVSIRDSGVPDRFSGSGSGTDFTLKISRVEAEDVGVYYCMQRLQIPLTFGGGTKVEIK
Turning to B2, the “EC50/EC50 3x(SO3)Y” value in test [4] was greater than 100 fold. Moreover, the concentration giving a half-maximal response (EC50) in test [5] is roughly 2000 nM; in test [6], 39.4 nM; in [7], 971 nM; in test [8], greater than 3000 nM. Further, the “fold stronger binding than to the unmodified peptide” value in [5] and in test [7] was roughly 10 fold in each case.

B3: 10F01 (antibody, IgG4, V domains shown)
VH: EVQLVQSGGGLVQPGGSLRLSCAASGFTFSSYAMSWVRQAPGKGLEWVSALRGGDGGTYHADSVKGRFTISGDSSKNTLYLQMNSLRAEDTAVYYCARRMVGAAYAFDIWGQGTMVTVSS
VL: LPVLTQPHSVSESPGKTVTISCTRSSGSIADNFVQWYRQRPGSAPTTVIYEGDQRPSGVPGRFSGSIDSSSNSASLTISGLQTDDEADYYCQSFDSYNRRTHVVFGGGTKLTVL
Turning to B3, the “% of binding to PSGL-1(ECD)-hFc1” value in [1] is no more than 10%. In addition, in test [4], the “EC50/EC50 3x(SO3)Y” value is roughly 2000 fold. Moreover, the half-maximal effective concentration (EC50) in test [5] was 36.2 nM; in test [6], roughly 1 nM; in test [7], roughly 2000 nM; in test [8], roughly 3000 nM.

B4: 20I15 (antibody, V domains shown)
VH: EVKLVESGGGLVQPGGSLSLSCAASGFTFTDYYMSWVRQPPGKALEWLGFIRNKANGYTTEYSASVKGRFTISRDNSQSILYLQMNALRAEDSATYYCARTYLRRGYFDVWGTGTTVTVSS
VL: DIVLTQSPASLAVSLGQRATISCRASKSVSTSGYSYMHWFQQKPGQPPKLLIYLASNLESGVPARFSGSGSGTDFTLNIHPVEEEDAATYYCQHSRELPLTFGAGTKLELK
notes: From mouse immunisation; only variable domains given; also called 20115
With B4, the “EC50/EC50 3x(SO3)Y” value in test [4] is roughly 10 fold. In addition, the EC50 in test [5] is roughly 3000 nM; in [6] it was 292 nM; in [7], roughly 3000 nM; in [8] it was roughly 3000 nM.

B5: 5E12 (antibody, V domains shown)
VH: EIQLQQSGAELVRPGASVKLSCTASGFNIKDDYIHWVKQRPEQGLEWIGRIDPANGNTKSAPKFQDKATITADTSSNTAYLHLSSLTSEDTAVYYCSIRFAYWGQGTLVTVSA
VL: DVVMTQTPLSLSVSLGDQASISCRSSQSLVYRNGDTYLHWFLQKPGQSPKLLIYKVSNRFSGVPDRFSGSGSGTDFTLKISRVEAEDLGIYFCSQNTHVPYTFGGGTKLEIK
notes: Mouse hybridoma mAb; only variable domains given
On to B5, for which the “% of binding to PSGL-1(ECD)-hFc1” value in test [1] is no more than 10%.

B6: 16E17 (antibody, V domains shown)
VH: QIQLVQSGPELKKPGETVKISCKASGYAFTTYGMSWVKQAPGKGLKWMGWINTYSGVPKYADDFKGRFAFSLETSASTAYLHINNLKNEDTATYFCGRHYYGSSYFDYWGQGTTLTVSS
VL: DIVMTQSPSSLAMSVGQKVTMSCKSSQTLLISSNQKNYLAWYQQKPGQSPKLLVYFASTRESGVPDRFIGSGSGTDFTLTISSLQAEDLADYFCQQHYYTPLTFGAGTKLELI
notes: as for B1
For B6, the binding result in [9] was “no binding”. Also, the “% binding of analyte mAb” value in [10] came to 16.3%; in test [11] it was 32.4%.

B7: 19L04 (antibody, IgG4, V domains shown)
VH: B6 VH with A28T, K59T, H82Q, N88I, G97A, S104H
VL: DIMMTQSPSSLAMSVGQKVTLRCKSSQSLLNSSNQKNYLAWYQQKPGQSPKLLVYFASTRESGVPVRFIGSGSGTDFTLTISSMQAEDLADYFCQQHYFSPLTFGAGTKLELK
notes: as for B1
Turning to B7, the binding result in [9] is reported as “no binding”. Moreover, the “% binding of analyte mAb” value in test [10] was found to be 61.9%; in test [11], 0%.

B8: 19N05 (antibody, V domains shown)
VH: B6 VH with A28T, K59T, Y60F, H82Q, Y94F, G97A, H99N, S103N, S104H
VL: DVQITQSPSYLAASPGETISINCRASNNINKYLAWYQEKPGKTNKLLIYSGSTLQSGIPSRFSGSGSGTDFTLTISSLEPEDFAMYHCQQHNYYPLTFGAGTKLELK
notes: as for B1
On to B8, for which the binding result in [9] is given as “no binding”. The “% binding of analyte mAb” value in test [10] was 29.1%; in test [11], 0%.

B9: 18K07 (antibody, V domains shown)
VH: QIQLVQSGPELKKPGETVKISCEASGYTFTTYGMNWVKQAPGKGLKWMGWINTYSGVPTYADDFQGRFAFSVETSATTAYLQINNLKNEDAATYFCARSDDTYYGFAYWGQGTLVTVSA
VL: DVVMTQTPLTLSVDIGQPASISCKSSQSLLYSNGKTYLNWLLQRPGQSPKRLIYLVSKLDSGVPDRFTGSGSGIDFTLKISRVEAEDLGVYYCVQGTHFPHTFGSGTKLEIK
notes: as for B1
As for B9, the binding result in test [9] is on record as “no binding”. In addition, the “% binding of analyte mAb” value in test [10] was 11.7%; in test [11], 0%.

B10: 16L15 (antibody, V domains shown)
VH: DVKLVESGGGLVKLGGSLKLSCAASGFTFSSYYMSWVRQTPEKRLEWVATISNGGGSTYYPDSVKDRFTISRDNAKNTLYLQMSSLNSEDTAVYYCAKPLYYSNPWFAYWGQGTLVTVSA
VL: DVLLTQTPLSLPVSLGDQASISCRSSQSIVHSNGNTYLEWYLQKPGQSPKLLIYKVSNRFSGVPDRFSGSGSGTDFTLKISRVEAEDLGVYYCFQGSHVPRTFGGGTKLEIK
notes: as for B1
As to B10, the “% of binding to PSGL-1(ECD)-hFc1” value in test [1] is no more than 10%. The molecule also came in with a half-maximal effective concentration (EC50) in test [2] of 19.9 nM. The molecule also had an EC50Ala/EC50 wt in [3] of 21 fold.

Broadly, the EC50 is the concentration at which the effect is half-maximal. The low end stands for a more potent agent, the high end for a less potent agent.

The values are drawn from patent US20220396632A1 (VERSEAU THERAPEUTICS, published 2022).
